Results published in patent publication US6358738 (Harvard, dated 2002).

How the values were obtained:
[1] = target: T1, Plk 323-499 (two-hybrid bait, wild-type polo box) (murine (mammalian Plk), UniProt Q07832 323-499); assay: yeast two-hybrid screen, mouse embryo cDNA library
T1 construct: Bait fusion expressed in yeast
From the text: Using the terminology of the two-hybrid system (Vojtek et al., 1993), vectors were engineered to have Plk carboxy terminal constructs as bait (see FIG. 11) and a mouse embryo 9.5/10.5-day cDNA library as prey. (A different strategy was used to identify TCTP/p23, i.e., full length Plk and a cDNA library from HeLa cells with inserts of 1–2 kb in the Examples, infra).

[2] = target: T2, GST-fusion protein of full-length TCTP/p23
T2 chain: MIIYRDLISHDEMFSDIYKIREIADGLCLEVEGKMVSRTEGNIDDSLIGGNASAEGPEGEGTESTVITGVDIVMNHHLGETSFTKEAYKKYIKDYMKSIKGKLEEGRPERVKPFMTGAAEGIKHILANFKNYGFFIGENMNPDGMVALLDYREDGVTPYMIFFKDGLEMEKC

HA-Snk = HA-Snk (UniProt P53351 1-682); assay: interaction of recombinant proteins produced in insect cells with baculovirus (GST-fusion)
HA-Snk, sequence (P53351 whole entry, the tested form may be a part): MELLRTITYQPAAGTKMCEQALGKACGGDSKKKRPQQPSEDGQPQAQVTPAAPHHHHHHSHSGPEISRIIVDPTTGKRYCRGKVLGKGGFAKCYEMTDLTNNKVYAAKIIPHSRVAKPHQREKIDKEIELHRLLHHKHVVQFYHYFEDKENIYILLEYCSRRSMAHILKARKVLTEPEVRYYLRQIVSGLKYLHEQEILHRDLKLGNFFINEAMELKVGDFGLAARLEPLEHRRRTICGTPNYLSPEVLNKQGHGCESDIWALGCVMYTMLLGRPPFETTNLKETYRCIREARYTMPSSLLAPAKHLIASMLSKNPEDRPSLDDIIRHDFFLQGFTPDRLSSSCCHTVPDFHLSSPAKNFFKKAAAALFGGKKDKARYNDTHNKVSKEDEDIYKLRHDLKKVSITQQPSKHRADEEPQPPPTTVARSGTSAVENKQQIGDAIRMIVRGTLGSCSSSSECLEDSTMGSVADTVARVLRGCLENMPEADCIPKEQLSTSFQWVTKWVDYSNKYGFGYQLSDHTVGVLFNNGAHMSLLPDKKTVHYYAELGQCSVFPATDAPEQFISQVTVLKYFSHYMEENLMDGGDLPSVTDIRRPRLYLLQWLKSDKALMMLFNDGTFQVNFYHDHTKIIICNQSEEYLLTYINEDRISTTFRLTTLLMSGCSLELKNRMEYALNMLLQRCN
From the text: Full-length TCTP/p23 (SEQ ID No:27) cDNA was isolated and cloned into a pGEX vector to produce a GST-fusion protein.

[3] = target: T1, Plk 323-499 (two-hybrid bait, wild-type …); assay: yeast two-hybrid

B1: Plk 500-603 (two-hybrid prey clone) (other, not shown: large carriers)
chain: REGDELARLPYLRTWFRTRSAIILHLSNGTVQINFFQDHTKLILCPLMAAVTYINEKRDFQTYRLSLLEEYGCCKELASRLRYARTMVDKLLSSRSASNRLKAS
Does B1 bind [1]?
Result: binds

B2: HA-Plk (protein)
chain: MNAAAKAGKLARAPADLGKGGVPGDAVPGAPVAAPLAKEIPEVLVDPRSRRQYVRGRFLGKGGFAKCFEISDADTKEVFAGKIVPKSLLLKPHQKEKMSMEISIHRSLAHQHVVGFHDFFEDSDFVFVVLELCRRRSLLELHKRRKALTEPEARYYLRQIVLGCQYLHRNQVIHRDLKLGNLFLNEDLEVKIGDFGLATKVEYEGERKKTLCGTPNYIAPEVLSKKGHSFEVDVWSIGCIMYTLLVGKPPFETSCLKETYLRIKKNEYSIPKHINPVAASLIQKMLQTDPTARPTIHELLNDEFFTSGYIPARLPITCLTIPPRFSIAPSSLDPSSRKPLKVLNKGVENPLPDRPREKEEPVVRETNEAIECHLSDLLQQLTSVNASKPSERGLVRQEEAEDPACIPIFWVSKWVDYSDKYGLGYQLCDNSVGVLFNDSTRLILYNDGDSLQYIERDGTESYLTVSSHPNSLMKKITLLNYFRNYMSEHLLKAGANITPREGDELARLPYLRTWFRTRSAIILHLSNGTVQINFFQDHTKLILCPLMAAVTYINEKRDFQTYRLSLLEEYGCCKELASRLRYARTMVDKLLSSRSASNRLKAS
Which “phosphorylation of TCTP/p23 by Plk kinase activity” value [2] does the source give for B2 here?
Its value is “phosphorylated by Plk on serine residues at positions 46 and 64”.

B3: GST-fusion protein of full-length TCTP/p23 (other)
chain: T2 chain
notes: Full-length TCTP/p23 cDNA cloned into a pGEX vector to produce a GST-fusion protein; also called GST-TCTP/p23; not shown: glutathione-S-transferase (GST) from pGEX vector
Does B3 bind (HA-Snk)?
Result: no binding

B4: chaperonin-containing-TCP (CCT) epsilon subunit, amino acid residues 13-139, two-hybrid prey clone (other, not shown: large carriers)
chain: GRPFLIIKDQDRKSRLMGLEALKSHIMAAKAVANTMRTSLGPNGLDKMMVDKDGDVTITNDGATILSMMDVDHQIAKLMVELSKSQDDEIGDGTTGVVVLAGALLEEAEQLLDRGIHPIRIADGYEQ
notes: also called CCT-ε
Does B4 bind [3]?
Result: binds
